Results reported in IntAct's records for PubMed 20346719.

B1: Flagellar brake protein YcgR (Escherichia coli (strain K12)), P76010 (parent)
chain: MSHYHEQFLKQNPLAVLGVLRDLHKAAIPLRLSWNGGQLISKLLAITPDKLVLDFGSQAEDNIAVLKAQHITITAETQGAKVEFTVEQLQQSEYLQLPAFITVPPPTLWFVQRRRYFRISAPLHPPYFCQTKLADNSTLRFRLYDLSLGGMGALLETAKPAELQEGMRFAQIEVNMGQWGVFHFDAQLISISERKVIDGKNETITTPRLSFRFLNVSPTVERQLQRIIFSLEREAREKADKVRD
partner: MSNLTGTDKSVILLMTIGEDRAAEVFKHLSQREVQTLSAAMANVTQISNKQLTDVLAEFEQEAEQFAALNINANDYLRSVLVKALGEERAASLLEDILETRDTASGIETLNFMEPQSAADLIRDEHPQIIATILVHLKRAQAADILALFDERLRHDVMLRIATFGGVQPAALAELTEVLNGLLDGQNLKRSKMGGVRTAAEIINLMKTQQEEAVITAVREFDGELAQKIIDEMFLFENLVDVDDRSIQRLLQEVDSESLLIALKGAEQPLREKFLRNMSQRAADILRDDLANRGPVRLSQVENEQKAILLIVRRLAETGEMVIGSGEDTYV
B2: Flagellar motor switch protein FliM (Escherichia coli (strain K12)), P06974 (parent)
chain: MGDSILSQAEIDALLNGDSEVKDEPTASVSGESDIRPYDPNTQRRVVRERLQALEIINERFARHFRMGLFNLLRRSPDITVGAIRIQPYHEFARNLPVPTNLNLIHLKPLRGTGLVVFSPSLVFIAVDNLFGGDGRFPTKVEGREFTHTEQRVINRMLKLALEGYSDAWKAINPLEVEYVRSEMQVKFTNITTSPNDIVVNTPFHVEIGNLTGEFNICLPFSMIEPLRELLVNPPLENSRNEDQNWRDNLVRQVQHSQLELVANFADISLRLSQILKLNPGDVLPIEKPDRIIAHVDGVPVLTSQYGTLNGQYALRIEHLINPILNSLNEEQPK
partner: B1 chain
B3: Flagellar brake protein YcgR (Escherichia coli (strain K12)), P76010 (parent)
chain: B1 chain
partner: B2 chain
B4: Flagellar motor switch protein FliG (Escherichia coli (strain K12)), P0ABZ1 (parent)
chain: B1 partner
partner: B1 chain

Variants of: B1
Conditions: with flig_ecoli fliG

Variant	effect of a mutation on the interaction
N62W	decreasing interaction
K81D	decreasing interaction

Variants of: B2
Conditions: with ycgr_ecoli ycgR

Variant	effect of a mutation on the interaction
N155E	decreasing interaction
V153D	decreasing interaction
L160E	disrupting interaction
E176R	decreasing interaction
D167R	decreasing interaction
R156E	disrupting interaction

Variants of: B3
Conditions: with flim_ecoli fliM

Variant	effect of a mutation on the interaction
Q223P	disrupting interaction
I227W	disrupting interaction

Variants of: B4
Conditions: with ycgr_ecoli ycgR

Variant	effect of a mutation on the interaction
P295W	decreasing interaction
N292W	decreasing interaction
Q252W	decreasing interaction
